Measured values taken from IntAct's records for PubMed 25678599.

B1: Segment polarity protein dishevelled homolog DVL-2 (Mus musculus), Q60838 (parent)
chain: MAGSSAGGGGVGETKVIYHLDEEETPYLVKIPVPAERITLGDFKSVLQRPAGAKYFFKSMDQDFGVVKEEISDDNARLPCFNGRVVSWLVSSDTPQPEVAPPAHESRTELVPPPPPLPPLPPERTSGIGDSRPPSFHPNVSSSHENLEPETETESVVSLRRDRPRRRDSSEHGAGGHRPGGPSRLERHLAGYESSSTLMTSELESTSLGDSDEDDTMSRFSSSTEQSSASRLLKRHRRRRKQRPPRMERTSSFSSVTDSTMSLNIITVTLNMEKYNFLGISIVGQSNERGDGGIYIGSIMKGGAVAADGRIEPGDMLLQVNDMNFENMSNDDAVRVLRDIVHKPGPIVLTVAKCWDPSPQAYFTLPRNEPIQPIDPAAWVSHSAALTGAFPAYPGSSSMSTITSGSSLPDGCEGRGLSVHMDMASVTKAMAAPESGLEVRDRMWLKITIPNAFLGSDVVDWLYHHVEGFPERREARKYASGLLKAGLIRHTVNKITFSEQCYYVFGDLSGGCESYLVNLSLNDNDGSSGASDQDTLAPLPGATPWPLLPTFSYQYPAPHPYSPQPPPYHELSSYTYGGGSASSQHSEGSRSSGSTRSDGGAGRTGRPEERAPESKSGSGSESELSSRGGSLRRGGEPGGTGDGGPPPSRGSTGAPPNLRALPGLHPYGAPSGMALPYNPMMVVMMPPPPPPVSTAVQPPGAPPVRDLGSVPPELTASRQSFHMAMGNPSEFFVDVM
partner: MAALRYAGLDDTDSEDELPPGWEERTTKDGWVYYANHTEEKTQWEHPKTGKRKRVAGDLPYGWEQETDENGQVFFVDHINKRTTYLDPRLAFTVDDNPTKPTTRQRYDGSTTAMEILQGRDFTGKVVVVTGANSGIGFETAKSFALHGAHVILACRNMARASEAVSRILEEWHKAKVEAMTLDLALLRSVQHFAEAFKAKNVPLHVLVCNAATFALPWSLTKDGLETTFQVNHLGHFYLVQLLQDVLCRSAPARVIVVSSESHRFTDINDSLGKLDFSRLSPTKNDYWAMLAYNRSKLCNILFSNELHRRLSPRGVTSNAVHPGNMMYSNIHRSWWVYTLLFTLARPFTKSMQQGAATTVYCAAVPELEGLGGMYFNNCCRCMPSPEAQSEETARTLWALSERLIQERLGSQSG
B2: B-cell CLL/lymphoma 9-like protein (Mus musculus), Q67FY2 (parent)
chain: MRILANKTRLPHPRRREAPGSPPLSPRGHCPPAPAKPMHPENKLTNHGKTGNGGAQSQHQNVNQGPTCNLGSKGVGAGSHGAKANQISPSNSSLKNPQAGVSPFSSLKGKVKRERSVSVDSGEQREAGTPSLDSEAKEVAPRSKRRCVLERKQPYSGDEWCSGPDSEEDDKPIAAAHNCNVADPAMVTPQLGPGQTAQLPLSESSAPGPQHGPQPGLRPDVPGGGGGGVPGKPPSQFVYVFTTHLANTAAEAVLQGRAESILAYHQQNVPRAKLDQAPKVPPTPEPLPLNTPSAGTPQSQPPPLPPPPPAPGSAPPALPPEGPPEDTSQDLAPNSVGAASTGGGTGGTHPNTPTAATANNPLPPGGDPGSAPGSALLGEATPTGNGQRNLVGSEGLSKEQLEHRERSLQTLRDIERLLLRSGETEPFLKGPPGGAGEGGPPAQAPSAAQPPPSAPPGGLKKYEEPLQSMISQTQSLGGPPLEHEVPGHPQGGDMGQQMNMMMQRLGQDSLTPEQVAWRKLQEEYYEEKRRKEEQIGLHGGRPLQDMVGMGGMMGRGPPPPYHSKPGDQWPPGMGAQLRGPMDVQDPMQLRPGPPFPGPRFPGNQMQRVPGFGGMQSMPMEVPMNAMQRPVRPGMAWNEDLPPIGGPSNFAQNAVPYPGGQGEAERFMTPRVREELLRHQLLEKRSMGMQRPLGMAGSGMGQSMEMERMIQAHRQMDPAMFPGQMTGGDGLAGTPMGIEFGGGRGLLSPPMGQSGLREVDPPMGPGNLNMNMNVNMNMNMNLNVQMTPQQQMLMSQKMRGPGDMMGPQGLSPEEMARVRAQNSSGMMGGPQKMLMPSQFPNQGQQGFSGGQGPYQAMPQDMGNTPDMFSPDQSSVPMGTVGTARLSHMPLPPASNPPGSVHLASNRGLGRRPSDLTISINQMGSPGMGHLKSPTLSQVHSPLVTSPSANLKSPQTPSQMVPLPSANPPGPLKSPQVLSSSLGVRSPTGSPSRLKSPSMAVPSPGWVASPKTAMPSPGVSQNKQPPLSINSSSTLGNVEQGALPPSAPRNSSSAPPANPSSGLMNPSLPFTSSPDPTPSQNPLSLMMSQMSKYAMPSSTPLYHNAIKTIATSDDELLPDRPLLPPPPPPQGSGPGISNNQPNQMHMNPAAAQSPMGMNLPGQQPLSHEPPPTMLPSPTPLGSNIPLHPNAQGTGGSSQNSMMMAPGGPDSLNAPCGPVPSSSQMMSFPPRLQQPHGAMAPTGAGGPGLQQHYPSGMALPPEDLPTQPPGPIPPQQHLMGKGMTGRMGDAYPPGVLPGVASVLNDPELSEVIRPTPTGIPEFDLSRIIPSEKPSSTLQYFPKSENQPPKAQPPNLHLMNLQNMMAEQTPSRPPNLPGQQGVQRGLSMSMCHPGQMSLLGRTGVPPQQGMVPHGLHQGVMSPPQGLMTQQNFMLMKQRGVGGEVYTQPPHMLSPQGSLMGPPPQQNLMVSHPLRQRSVSLDSQMGYLPTPGSMANLPF
partner: B1 partner
B3: WW domain-containing oxidoreductase (Homo sapiens), Q9NZC7 (parent)
chain: B1 partner
partner: B1 chain
B4: WW domain-containing oxidoreductase (Homo sapiens), Q9NZC7 (parent)
chain: B1 partner
partner: B2 chain

Variants of: B1
Settings: with wwox_human WWOX, Q9NZC7

Row | effect of a mutation on the interaction | Variant
1 | decreasing interaction | Y568A

Variants of: B2
Settings: with wwox_human WWOX, Q9NZC7

Row | effect of a mutation on the interaction | Variant
2 | disrupting interaction | Y561A

Variants of: B3
Settings: with dvl2_mouse Dvl2, Q60838

Row | effect of a mutation on the interaction | Variant
3 | decreasing interaction | Y33R

Variants of: B4
Settings: with bcl9l_mouse Bcl9l, Q67FY2

Row | effect of a mutation on the interaction | Variant
4 | decreasing interaction | Y33R
